Test results reported in paper PMC12013189, “Phospho-regulated tethering of focal adhesion kinase to vinculin links force transduction to focal adhesion signaling” (Cell Communication and Signaling : CCS, 2025).
Ends that are not written are not given here.

B1: FAT domain of Focal Adhesion Kinase, wild type (hFAK904-1052) (domain or fragment, human, UniProt Q05397 904-1052, looked up)
chain: LQPQEISPPPTANLDRSNDKVYENVTGLVKAVIEMSSKIQPAPPEEYVPMVKEVGLALRTLLATVDETIPLLPASTHREIEMAQKLLNSDLGELINKMKLAQQYVMTSLQQEYKKQMLTAAHALAVDAKNLLDVIDQARLKMLGQTRPH
notes: focal adhesion kinase (FAK), human, FAT domain, residues 904-1052 (hFAK904-1052); also called FAT-WT; source: E. coli BL21(DE3), purified (His-Trap, TEV digest, Source 15Q, Ni-NTA flow-through, Superdex200); not shown: His6, N-terminal, cleaved

Tests used:
[1] = molecular target: T1, vinculin tail domain (Vin-T, hVinculin891-1066) (Homo sapiens, UniProt P18206); experiment: Fluorescence anisotropy binding to vinculin tail domain; conditions: 25 nM FITC labelled peptide, pH7.5, 22 °C, one-site binding model, 4 measurements, read-out: Apparent KD for vinculin tail domain (Vin-T)
T1 construct: Vin-FL (hVinculin1-1066) and Vin-T (hVinculin891-1066) were ordered from GenScript; 6xHis (TEV cleavable) (N, cleaved yes); made in house; host or cells: E. coli BL21(DE3)
Description: (§1) Expression plasmids for FAT (hFAK904-1052 WT and mutants H14, H23 and H14-23), Vin-FL (hVinculin1-1066) and Vin-T (hVinculin891-1066) were ordered from GenScript in the pET28(+) vector, adding a TEV cleavable N-terminal 6xHis tag to the expressed proteins. Mutant FAT-H14 contains the mutations I936A, H1025A, K1032A; FAT-H23 contains the mutations K955A, R962A, I998A and FAT-14-23 contains the combined mutations I936A, K955A, R962A, I998A, H1025A, K1032A. All plasmids were introduced into E.coli strain BL21(DE3) for expression. Cells were grown in LB media, induced with 1 mM IPTG at an OD (600 nm) of 0.6 and grown over night at 20 °C. […]
(§2) Binding curves were determined in a total of 20 µl in black 384 well plates, by titrating protein concentrations (typically up to 50 µM) at a fixed concentration of 25 nM FITC labelled LD peptides (Apeptide Co. Ltd) in 20 mM Tris pH7.5, 150 mM NaCl, 1mM TCEP. Anisotropy measurements were preformed at 22 °C on a Spark® Multimode microplate reader (Tecan) with polarizers, at an excitation wavelength of 485 nm and an emission wavelength of 535 nm (20 nm bandwidth). KD values were extracted by fitting a one-site binding model using the GraphPad Prism software, using the equation: Y = Bmax*X/(KD + X), where Y is the measured anisotropy, X the protein concentration and Bmax the maximal anisotropy value at binding saturation.

[2] = molecular target: T2, full-length vinculin (Vin-FL, hVinculin1-1066) (Homo sapiens, UniProt P18206); experiment: Fluorescence anisotropy binding to full-length vinculin; conditions: 25 nM FITC labelled peptide, pH7.5, 22 °C, one-site binding model, 4 measurements, read-out: Apparent KD for full-length vinculin (Vin-FL)
T2 construct: Vin-FL (hVinculin1-1066) and Vin-T (hVinculin891-1066) were ordered from GenScript; 6xHis (TEV cleavable) (N, cleaved yes); made in house; host or cells: E. coli BL21(DE3)
Description: as §1, §2

[3] = molecular target: T3, FAT domain of FAK (hFAK904-1052 WT) (Homo sapiens, UniProt Q05397); experiment: Fluorescence anisotropy binding of FITC LD peptides to FAT-WT
T3 construct: Expression plasmids for FAT (hFAK904-1052 WT and mutants H14, H23 and H14-23); 6xHis (TEV cleavable) (N, cleaved yes); made in house; host or cells: E. coli BL21(DE3)
T3 sequence (Q05397 904-1052): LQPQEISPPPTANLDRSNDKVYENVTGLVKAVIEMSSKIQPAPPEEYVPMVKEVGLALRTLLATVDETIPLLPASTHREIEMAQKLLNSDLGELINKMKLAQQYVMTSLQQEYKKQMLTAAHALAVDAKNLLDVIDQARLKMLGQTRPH
Description: Expression plasmids for FAT (hFAK904-1052 WT and mutants H14, H23 and H14-23), Vin-FL (hVinculin1-1066) and Vin-T (hVinculin891-1066) were ordered from GenScript in the pET28(+) vector, adding a TEV cleavable N-terminal 6xHis tag to the expressed proteins. Mutant FAT-H14 contains the mutations I936A, H1025A, K1032A; FAT-H23 contains the mutations K955A, R962A, I998A and FAT-14-23 contains the combined mutations I936A, K955A, R962A, I998A, H1025A, K1032A. All plasmids were introduced into E.coli strain BL21(DE3) for expression. Cells were grown in LB media, induced with 1 mM IPTG at an OD (600 nm) of 0.6 and grown over night at 20 °C. Cells were pelleted at 6000 rpm and resuspended in 20 mM Tris pH8, 200 mM NaCl, 5% Glycerol, 10 mM imidazole, 2mM TCEP, 1mM PMSF supplemented with cOmplete protein inhibitor cocktail (Roche). Cells were lysed by sonication and insoluble components removed by centrifugation at 40 K for 1 h at 4 °C. Soluble lysates were cleared through 0.45 μm filters and loaded onto His-Trap affinity columns (Cytiva), washed with step gradients up to 30 mM imidazole and eluted with a gradient up to 500 mM imidazole. Peak-fractions were digested over night with TEV protease (molar ratio ~ 1: 20) at 4 °C. Proteins were diluted to 50 mM NaCl and loaded onto a Source 15Q column, washed with 20 mM Tris pH8, 50 mM NaCl, 5% Glycerol, 1mM TCEP and eluted with a gradient up to 1 M NaCl. Peak fractions were mixed with 1 ml of Ni-NTA beads to remove TEV and uncleaved protein, adding 10 mM imidazole to prevent non-specific binding. The flow-through was concentrated, loaded onto a Superdex200 16/60 column and eluted in 20 mM Tris pH8, 200 mM NaCl, 5% Glycerol, 2mM TCEP. Peak fractions were concentrated, aliquots flash frozen in LN2 and stored at -80 °C.
as §2

[4] = molecular target: paxillin LD2 peptide; experiment: fluorescence polarisation; fluorescence anisotropy; protein titrated (typically up to 50 µM) at 25 nM FITC labelled LD peptide; 20 mM Tris pH7.5, 150 mM NaCl, 1mM TCEP; 22 °C; one-site binding model; apparent KD
[5] = molecular target: paxillin LD1 peptide; experiment: as above
[6] = molecular target: vinculin tail domain (hVinculin891-1066) (human) (UniProt P18206); experiment: AUC; sedimentation velocity; Vin-T at 100 µM; 20 °C, 48,000 rpm; monomer to dimer
[7] = molecular target: B1; experiment: fluorescence polarisation; fluorescence anisotropy; protein titrated (typically up to 50 µM) at 25 nM FITC labelled LD peptide; 20 mM Tris pH7.5, 150 mM NaCl, 1mM TCEP; 22 °C; one-site binding model; apparent KD; conditions: both partners purified
[8] = molecular target: T4, FAT-H14 (hFAK904-1052 with I936A, H1025A, K1032A) (human, UniProt Q05397 904-1052, I936A | H1025A | K1032A); experiment: FP
T4 sequence: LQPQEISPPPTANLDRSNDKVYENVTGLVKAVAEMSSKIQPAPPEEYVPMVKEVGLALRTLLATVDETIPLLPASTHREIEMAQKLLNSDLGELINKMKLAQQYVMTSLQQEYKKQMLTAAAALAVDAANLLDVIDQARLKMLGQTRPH

[9] = molecular target: T5, paxillin LD2/4 peptide (LD2 and LD4 motifs separated by a designed linker) (FITC label (fluorescence anisotropy)); experiment: AUC; sedimentation velocity; FAT and Vin-T at 30 µM with 10 µM LD2/4 peptide; 20 mM Tris pH 7.5, 200 mM NaCl, 5% Glycerol, 1 mM TCEP; 20 °C, 58,000 rpm; absorbance at 280 nm; conditions: both partners purified
T5 chain: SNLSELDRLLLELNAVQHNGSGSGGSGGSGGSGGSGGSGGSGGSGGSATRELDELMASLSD

[10] = molecular target: T6, FAT domain of Focal Adhesion Kinase, wild type (hFAK904-1052) (human, UniProt Q05397 904-1052); experiment: FP
T6 chain: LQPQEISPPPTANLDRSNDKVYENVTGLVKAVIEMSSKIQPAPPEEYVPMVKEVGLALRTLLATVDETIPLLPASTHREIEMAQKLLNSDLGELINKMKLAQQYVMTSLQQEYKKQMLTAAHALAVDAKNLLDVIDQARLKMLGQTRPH

[11] = molecular target: T7, FAT-Y925E phospho-mimetic mutant (human, UniProt Q05397 904-1052, Y925E); experiment: FP
T7 sequence: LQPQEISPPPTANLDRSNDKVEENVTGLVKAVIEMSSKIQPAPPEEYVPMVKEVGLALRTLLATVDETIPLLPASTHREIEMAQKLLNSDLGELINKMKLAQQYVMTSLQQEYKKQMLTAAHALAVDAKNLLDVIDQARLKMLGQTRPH

[12] = molecular target: T8, FAT-Y925F phosphodeficient mutant (human, UniProt Q05397 904-1052, Y925F); experiment: FP
T8 sequence: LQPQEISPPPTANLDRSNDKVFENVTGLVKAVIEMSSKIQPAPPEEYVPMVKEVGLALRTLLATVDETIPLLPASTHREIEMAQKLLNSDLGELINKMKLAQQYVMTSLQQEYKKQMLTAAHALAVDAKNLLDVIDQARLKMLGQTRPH

[13] = molecular target: T9, FAT-H23 (hFAK904-1052 with K955A, R962A, I998A) (human, UniProt Q05397 904-1052, K955A | R962A | I998A); experiment: FP
T9 sequence: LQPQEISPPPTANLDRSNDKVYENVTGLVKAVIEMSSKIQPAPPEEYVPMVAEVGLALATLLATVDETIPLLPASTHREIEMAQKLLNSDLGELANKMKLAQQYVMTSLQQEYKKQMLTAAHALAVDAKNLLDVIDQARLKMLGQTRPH

T1 sequence (P18206 891-1066 isoform P18206-2): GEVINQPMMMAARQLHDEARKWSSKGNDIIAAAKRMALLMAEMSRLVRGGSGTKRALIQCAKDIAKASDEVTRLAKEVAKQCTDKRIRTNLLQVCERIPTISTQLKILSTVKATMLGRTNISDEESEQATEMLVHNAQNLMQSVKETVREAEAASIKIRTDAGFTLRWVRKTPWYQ
T2 sequence (P18206 1-1066 isoform P18206-2): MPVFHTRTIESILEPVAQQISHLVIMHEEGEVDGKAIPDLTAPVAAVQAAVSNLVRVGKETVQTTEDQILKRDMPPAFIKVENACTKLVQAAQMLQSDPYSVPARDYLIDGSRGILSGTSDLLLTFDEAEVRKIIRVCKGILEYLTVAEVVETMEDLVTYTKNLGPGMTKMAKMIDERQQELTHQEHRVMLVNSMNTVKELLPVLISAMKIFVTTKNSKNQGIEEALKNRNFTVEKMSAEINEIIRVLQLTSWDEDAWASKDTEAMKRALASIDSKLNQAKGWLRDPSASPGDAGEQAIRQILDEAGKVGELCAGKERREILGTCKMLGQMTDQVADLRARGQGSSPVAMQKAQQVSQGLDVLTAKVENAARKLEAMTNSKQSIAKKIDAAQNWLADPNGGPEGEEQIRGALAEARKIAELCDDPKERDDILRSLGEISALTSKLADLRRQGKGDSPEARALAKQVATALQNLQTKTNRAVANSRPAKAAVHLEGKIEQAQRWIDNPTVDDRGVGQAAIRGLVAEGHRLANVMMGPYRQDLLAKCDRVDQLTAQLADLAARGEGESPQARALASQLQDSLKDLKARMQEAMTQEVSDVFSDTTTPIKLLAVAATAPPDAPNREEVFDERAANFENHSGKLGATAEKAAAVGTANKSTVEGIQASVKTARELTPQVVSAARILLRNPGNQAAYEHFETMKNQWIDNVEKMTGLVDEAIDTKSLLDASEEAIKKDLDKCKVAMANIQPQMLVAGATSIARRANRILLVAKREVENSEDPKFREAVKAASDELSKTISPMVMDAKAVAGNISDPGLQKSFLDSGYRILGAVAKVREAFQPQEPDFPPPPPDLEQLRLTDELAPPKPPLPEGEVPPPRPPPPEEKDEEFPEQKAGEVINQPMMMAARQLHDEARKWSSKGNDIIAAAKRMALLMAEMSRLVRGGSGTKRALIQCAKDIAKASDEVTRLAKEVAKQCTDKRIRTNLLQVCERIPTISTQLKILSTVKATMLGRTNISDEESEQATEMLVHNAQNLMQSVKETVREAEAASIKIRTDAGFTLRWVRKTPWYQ

## CC(C)C[C@H](NC(=O)[C@H](CCC(=O)O)NC(=O)[C@H](CC(C)C)NC(=O)[C@H](CC(C)C)NC(=O)[C@H](CC(C)C)NC(=O)[C@H](CCCNC(=N)N)NC(=O)[C@H](CC(=O)O)NC(=O)[C@H](CC(C)C)NC(=O)[C@H](CCC(=O)O)NC(=O)[C@H](CO)NC(=O)[C@H](CC(C)C)NC(=O)[C@H](CC(N)=O)NC(=O)[C@@H](N)CO)C(=O)N[C@@H](CC(N)=O)C(=O)N[C@@H](C)C(=O)N[C@H](C(=O)N[C@@H](CCC(N)=O)C(=O)N[C@@H](Cc1c[nH]cn1)C(=O)N[C@@H](CC(N)=O)C(=O)O)C(C)C [LD2]
[1]
  Kd: 1700 ± 300 nM
[2]
  Kd: 1300 ± 300 nM

## MDDLDALLADLES [LD1]
[1]
  Kd: 3100 ± 300 nM

## SATRELDELMASLSD [LD4]
[3]; 25 nM FITC labelled peptide, 20 mM Tris pH7.5, 150 mM NaCl, 1mM TCEP, 22 °C, one-site binding model, 4 measurements, read-out: Apparent KD for FAT-WT
  Kd: 2100 ± 400 nM

## SQLDSMLGSLQSD [LD5, synthetic peptide corresponding to the paxillin LD5 motif, FITC labelled N-terminally for anisotropy]
[3]
  binding to FAT-WT, in words: no significant affinity

## SVESLLDELES [LD3, synthetic peptide corresponding to the paxillin LD3 motif, FITC labelled N-terminally for anisotropy]
[3]
  binding to FAT-WT, in words: no significant affinity

## full-length vinculin (hVinculin1-1066) (from UniProt P18206-2 1-1066) (natural protein)
[4]
  Kd: 1300 nM

## vinculin tail domain (hVinculin891-1066) (from UniProt P18206-2 891-1066) (domain or fragment)
[4]
  Kd: 1700 nM
[5]
  Kd: 3100 nM
[6]
  percent of Vin-T in the ~ 2.5 S form at 100 µM: 20%
  stoichiometry N: 2

## ATRELDELMASLS (also: FITC label, position not given here) [paxillin LD4 peptide]
[7]
  Kd: ~2000 nM
[8]
  Kd: 3600 nM

## B1
[9]
  stoichiometry N: 1 FAT per LD2/4 (2:2)
[4]
  Kd: 2000 nM
[5]
  fold lower affinity than for LD2 and LD4: 10 fold

B2: FAT-H14 (hFAK904-1052 with I936A, H1025A, K1032A) (domain or fragment)
chain: LQPQEISPPPTANLDRSNDKVYENVTGLVKAVAEMSSKIQPAPPEEYVPMVKEVGLALRTLLATVDETIPLLPASTHREIEMAQKLLNSDLGELINKMKLAQQYVMTSLQQEYKKQMLTAAAALAVDAANLLDVIDQARLKMLGQTRPH
[4]
  fold reduction of affinity against FAT-WT: 7 fold

## SNLSELDRLLLELNAVQHN (also: FITC label, position not given here) [paxillin LD2 peptide]
[10]
  Kd: 1800 nM
[11]
  Kd: 6000 nM
[12]
  Kd: 6000 nM
[13]
  Kd: 3900 nM
[8]
  Kd: 13300 nM

B3: paxillin LD2/4 peptide (LD2 and LD4 motifs separated by a designed linker) (peptide)
chain: SNLSELDRLLLELNAVQHNGSGSGGSGGSGGSGGSGGSGGSGGSGGSATRELDELMASLSD
modifications: also: FITC label, position not given here
[11]
  Kd: 1500 nM
[12]
  Kd: 1400 nM
[7]
  Kd: 130 ± 10 nM
[13]
  Kd: 1800 nM
[8]
  Kd: 5800 nM

## MDDLDALLADLES (also: FITC label, position not given here) [paxillin LD1 peptide]
[10]
  Kd: 18300 nM
[11]
  Kd: 24700 nM
[12]
  Kd: 19300 nM
[8]
  Kd: 31400 nM
